The source of these data is paper doi:10.1101/2025.03.26.644761 (bioRxiv, 2025).

Data set [1] deals with the molecule itself. Nature of the data set: single molecule fluorescence.
In data set [2] the target is T1, His6-YPet-mRIPK3_(379-486) (mouse, UniProt Q9QZL0 379-486).
T1 sequence (looked up): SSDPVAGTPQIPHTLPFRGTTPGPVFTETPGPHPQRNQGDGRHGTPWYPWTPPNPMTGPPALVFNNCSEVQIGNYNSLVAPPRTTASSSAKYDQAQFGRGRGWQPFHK
Nature of the data set: SDS semi-denaturing agarose gel electrophoresis.

Data set [3] deals with the molecule itself. Description: solid-state NMR of homomeric fibrils.
The target of data set [4] is T2, His6-YPet-hRIPK3_(387–518) (human, UniProt Q9Y572 387-518).
T2 sequence (looked up): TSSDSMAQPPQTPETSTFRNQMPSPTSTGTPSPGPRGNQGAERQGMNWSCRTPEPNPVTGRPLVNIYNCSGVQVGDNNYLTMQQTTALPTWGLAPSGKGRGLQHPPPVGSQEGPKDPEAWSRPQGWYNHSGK
Nature of the data set: Two-Colour Coincidence Detection spectroscopy.

Data set [5] concerns the molecule itself. Description: Thioflavin T fluorescence + negative stain transmission electron microscopy.

Changes are numbered by the printed parent chain.

B1: His6-M45_(1–90)-mCherry, wild type (domain or fragment, murine cytomegalovirus (MCMV), UniProt Q06A28 1-90, looked up)
chain: MDRQPKVYSDPDNGFFFLDVPMPDDGQGGQQTATTAAGGAFGVGGGHSVPYVRIMNGVSGIQIGNHNAMSIASCWSPSYTDRRRRSYPKT
B1: the binding result in data set [1] and in data set [2] was “binds” each time.

B2: M45_(1-90), RHIM-containing N-terminal region of MCMV M45 (viral inhibitor of RIP activation), tag removed (domain or fragment, murine cytomegalovirus (MCMV), UniProt Q06A28 1-90, looked up)
chain: B1 chain
On to B2, for which, in data set [3], the binding result is “binds”.

B3: His6-M45_(1–90)-mCherry, AAAA mutant D (domain or fragment, murine cytomegalovirus (MCMV), UniProt Q06A28 1-90, looked up)
chain: B1 chain with N65A, H66A, N67A
As to B3, the binding result in data set [4] is recorded as “binds”.

B4: His6-M45_(1–90)-mCherry, AAAA mutant B (domain or fragment, murine cytomegalovirus (MCMV), UniProt Q06A28 1-90, looked up)
chain: B1 chain with G57A, V58A, S59A, G60A
B4: the binding result in data set [1] and in data set [4] was “binds” in each case.

B5: His6-M45_(1–90)-mCherry, AAAA mutant E (domain or fragment, murine cytomegalovirus (MCMV), UniProt Q06A28 1-90, looked up)
chain: B1 chain with M69A, S70A, I71A
As for B5, the binding result in data set [4] is recorded as “binds”.

B6: His6-M45_(1–90)-mCherry, AAAA mutant A (domain or fragment, murine cytomegalovirus (MCMV), UniProt Q06A28 1-90, looked up)
chain: B1 chain with R53A, I54A, M55A, N56A
For B6, the binding result in data set [4] and in data set [5] was “binds” throughout.

B7: His6-M45_(1–90)-mCherry, AAAA mutant C (domain or fragment, murine cytomegalovirus (MCMV), UniProt Q06A28 1-90, looked up)
chain: B1 chain with I61A, Q62A, I63A, G64A
Regarding B7, in data set [4], the binding result is recorded as “binds”.

B8: RIPK3_(387-518), RHIM-containing region of human RIPK3, tag removed (domain or fragment, UniProt Q9Y572 387-518, looked up)
chain: T2 sequence (looked up)
For the molecule B8, the binding result in data set [3] was “binds”.
